Reference: patent publication US20160219844A1 (published 2016)

Molecular target: T1, green fluorescent protein (GFP) peptide on H-2Kd (mouse)
T1 peptide: HYLSTQSAL
Test: multimer staining
Source text: FIG. 1 is a pair of graphs showing detection of GFP-specific CD8+ T cells in founder αGFP mice generated by somatic cell nuclear transfer (“SCNT”). Cells were collected from the lymph nodes of founder αGFP mice. The cells were stained for CD8 and an anti-H-2K^d-GFP₂₀₀₋₂₀₈ pentamer. Representative FACS is shown in all 14 founders. Note that these are founder mice and thus chimeric.

binding result: recognises
B1: GFP-specific T cell receptor (αGFP TCR) of SEQ ID NOs 2 and 4 (TCR, V domains shown)
Valpha: QQKVQQSPESLSVPEGGMASFNCTSSDRNFQYFWWYRQHSGEGPKALMSIFSDGDKKEGRFTAHLNKASLHVSLHIRDSQPSDSALYFCAASHDTNAYKVIFGKGTHLHVLP
Vbeta: DPKIIQKPKYLVAVTGSEKILICEQYLGHNAMYWYRQSAKKPLEFMFSYSYQKLMDNQTASSRFQPQSSKKNHLDLQITALKPDDSATYFCASSQGAGIYNSPLYFAAGTRLTVT
